“Also recorded” adds a separate entry of the source.
Legend:
[1] = system: rat neonatal cardiomyocytes; assay: In vitro cell size measurement of cardiomyocytes; type: cell-based; details: with or without angiotensin-II (0.1 μM), IL-33 (10 ng/ml), anti-ST2 antibody (100 μg/ml)
Procedure: Sarcomeric α-actinin staining for cardiomyocytes and BrdUrd labeling for cardiac fibroblasts were performed as described previously (5). Mouse monoclonal antibody to sarcomeric α-actinin (EA-53, Sigma) was diluted 1:100 and used. For cardiomyocyte size, cells were visualized using an inverted fluorescent microscope (IX-70; Olympus), and the surface area of the cardiomyocytes was calculated with ImagePro Express software. Cells from randomly selected fields were analyzed.
Cell culture of rat neonatal cardiomyocytes and cardiac fibroblasts was performed as previously described (42, 43). Briefly, hearts from 1-3 day-old Sprague-Dawley rat neonates (Charles River) were digested with trypsin (1 mg/ml, GIBCO) and collagenase-II (0.8 mg/ml, Worthington), and plated on non-coated culture dishes for 1.5 hrs. Attached cells were further cultured with Dulbecco's Modified Essential Medium (GIBCO) containing 10% fetal bovine serum and used as cardiac fibroblasts after 2 passages. […]
Immunofluorescence staining on paraffin-embedded mice hearts or rat neonatal cardiomyocyte cell culture was performed as described previously (42, 45). […] For measuring cardiomyocyte size, the surface area of the cells was calculated with ImagePro Express software. Cells from randomly selected fields were analyzed.

[2] = system: MAP kinases and Akt; assay: Western analysis for MAP kinases and Akt in cardiomyocytes; type: cell-based, rat
Procedure: Phosphorylation of MAP kinases and Akt were detected by Western analysis as previously described (5). Membranes were incubated with primary antibodies overnight (phospho ERK1/2 diluted 1:1000; phospho SAPK/JNK diluted 1:500; phospho p38 MAPK diluted 1:500; phospho Akt (Ser473) diluted 1:1000). All antibodies were from Cell Signaling Technology, Inc. (Danvers, Mass.) and were sequentially detected with horseradish peroxidase-conjugated goat anti-rabbit IgG and enhanced chemiluminescence.
(§1) Western analyses were performed as described previously (45). Membranes were incubated with primary antibodies overnight (anti-p44/42MAPK diluted 1:500; phospho-p44/42MAPK (Thr202/Tyr204) 1:1000; phospho-JNK (Thr183/Tyr185) 1:500; p38MAPK 1:500; phospho-p38MAPK (Thr180/Tyr182) 1:500; phospho-Akt (Ser473) 1:1000 and phospho-IκBα 1:1000, all from Cell Signaling, anti-mouse ST2L, from R&D 1:1000 and anti-IL-33 as described above, 1:500) at 4° C., detected with horseradish peroxidase-conjugated antibodies and enhanced chemiluminescence.

[3] = system: cardiac fibroblasts; assay: Cardiac fibroblast proliferation; type: cell-based, rat
Procedure: A 3-(4,5-dimethylthiazol-2-yl)-5-(3-carboxymethoxyphenyl)-2-(4-sulfophenyl)-2H-tetrazolium salt (MTS) assay was performed with CellTiter 96 AQueous One Solution Cell Proliferation Assay kit (Promega, Madison, Wis.). Actual cell number in each group was also counted manually after exclusion of dead cells by Trypan blue staining. Cell cycle of cardiac fibroblasts was analyzed as previously described (9). Briefly, cardiac fibroblasts were seeded at a density of 1.5×10^5 cells per 60 mm dishes and serum-starved for 24 hrs. After treatment, cells were trypsinized, fixed in 80% ethanol at −20° C. and labeled with 50 ug/ml propidium iodide (Sigma) with 50 ug/ml RNaseA (Sigma). Then propidium iodide fluorescence was analyzed by flow cytometer (CYTOMICS FC500, Beckman Coulter, Fullerton, Calif.). Total population was initially gated to remove cell debris, and 1×10^4 cells were assessed for each DNA histogram using CXP software (Beckman Coulter).

[4] = system: cardiomyocytes; assay: Oxidative stress assay (DCFDA, ROS generation); type: cell-based, rat; details: co-treatment with IL-33
Procedure: An assay to detect oxidative stress was performed as reported previously (48). Cardiomyocytes were incubated with 2,7-dichlorodihydrofluorecein diacetate (DCFDA) for 45 min, washed in phosphate-buffered saline, and fluorescence intensity was measured using a fluorometer (PerkinElmer Life Science) at 595 nm.

[5] = system: NF-κB; assay: NF-κB luciferase reporter assay in neonatal rat cardiomyocytes; type: cell-based; details: angiotensin-II with IL-33 co-treatment, n=3
Procedure: Neonatal rat cardiomyocytes were transfected using Lipofectamine Plus (Invitrogen) with a luciferase reporter plasmid for NF-κB and with β-galactosidase, as described previously (47). After 48 hours of transfection, cells were then stimulated for an additional 24 hours, lysed and treated with Dual-Light assay system (Applied Biosystems, Foster City, Calif.), and analyzed using a luminometer (PerkinElmer Waltham, Calif.).

[6] = system: IκBα; assay: IκBα phosphorylation by Western analysis in cardiomyocytes; type: cell-based, rat
Procedure: as §1

[7] = system: rat neonatal cardiomyocytes; assay: [3H]-leucine incorporation assay (hypertrophy); type: cell-based
Procedure: Leucine incorporation in rat neonatal cardiomyocytes was detected as previously described (7). Cells were pre-incubated with 1.0 μCi/mL [^3H]leucine for 24 hours. The medium was aspirated, and the cells were washed twice with ice-cold PBS and once with 10% trichloroacetic acid (TCA; Sigma) and fixed for 45 minutes at 4° C. with 10% TCA. After washing twice with cold 95% ethanol, radioactivity incorporated into the TCA-precipitable material was determined by liquid scintillation counting after solubilization in 0.15N NaOH.
Leucine incorporation in rat neonatal cardiomyocytes was detected as previously described (46). Cells were treated with 1.0 μCi/ml [^3H]-leucine for 24 hours, washed, fixed with 10% trichloroacetate (Sigma) for 45 minutes at 4° C., and then radioactivity was determined by liquid scintillation counting. An anti-mouse ST2 antibody (R&D) was used as a functional neutralizing antibody (12). A normal rat IgG2a (Sigma) and mouse IL-1Rrp2 (R&D) were used as controls for anti-mouse ST2 antibody (R&D) and mouse soluble ST2 (R&D), respectively.

B1: IL-33: recombinant mature rat IL-33, starting with amino acid 109 of the full-length protein, N-terminal His tag (GenBank BC081993) (protein)
chain: SIQGTSLLTESCALSTYNDQSVSFVLENGCYVINVEDCGKNQEKDKVLLRYYESSFPAQSGDGVDGKKLMVNMSPIKDTDIWLNANDKDYSVELQKGDVSPPDQAFFVLHKKSSDFVSFECKNLPGTYIGVKDNQLALVEENDESCNNIMFKLSKM
modifications: left off: small tags and cut ends
[1]
  cardiomyocyte cell size: antihypertrophic effect of IL-33 was further confirmed
[2]; IL-33 (10 ng/ml) alone
  phosphorylation of ERK, p38 and JNK MAP kinases: increased phosphorylation of ERK, p38 and JNK MAP kinases; also recorded: generally modest compared with IL-1β; also recorded: activated all MAP kinases
[2]; IL-33 alone
  Akt activation: minimally activated Akt
[2]; co-treatment with IL-33
  angiotensin-II-induced Akt activation: did not impair angiotensin-II-induced Akt activation
  angiotensin-II-induced ERK phosphorylation: did not affect ERK phosphorylation
  angiotensin-II-induced JNK phosphorylation: decreased
  angiotensin-II-induced p38MAPK phosphorylation: decreased
[3]
  cardiac fibroblast proliferation, IL-33 alone: can induce cardiac fibroblast proliferation
[3]; co-treatment with IL-33
  cardiac fibroblast proliferation induced by angiotensin II: antagonizes cardiac fibroblast proliferation induced by angiotensin II; also recorded: antagonizes the proliferation induced by angiotensin II
[4]
  ROS generation in the presence of angiotensin-II or phenylephrine: significantly decreased the generation of ROS; also recorded: inhibited by IL-33 in cardiomyocytes
[5]
  increase of NF-κB promoter activity: 8+/−12%
[6]; PDGF-BB (10 ng/ml) or TNF-α (10 ng/ml), IL-33 10 ng/ml
  reduction of IκBα phosphorylation induced by PDGF-BB or TNF-α: not observed; also recorded: did not block IκBα phosphorylation
[6]; cardiomyocytes
  IκBα phosphorylation by agent alone: induced IκBα phosphorylation in both cell types
[6]; cardiomyocytes, co-treatment with IL-33
  IκB phosphorylation under hypertrophic stimulus: reduced IκB phosphorylation in cardiomyocytes
[7]; co-treatment with IL-33
  hypertrophy (leucine uptake) induced by angiotensin-II or phenylephrine: can block cardiac hypertrophy; also recorded: potently blocked cardiomyocyte hypertrophy; also recorded: abrogates angiotensin-II- and phenylephrine-induced hypertrophy in cardiomyocytes in vitro; also recorded: blocks hypertrophy induced by angiotensin II; also recorded: dose dependent ability to decrease hypertrophy induced by angiotensin II and phenylephrine; also recorded: can antagonize hypertrophic effects of angiotensin II and phenylephrine; also recorded: blocked angiotensin-II or phenylephrine-induced leucine uptake in a dose-dependent manner
[7]; no other stimulus
  hypertrophy (leucine uptake), IL-33 alone: modest, dose-dependent pro-hypertrophic trend that was not statistically significant; also recorded: modest hypertrophic effect; also recorded: non-significant trend toward stimulating hypertrophy
